# Measurements from patent publication US9724426B2, “Agents, uses and methods” (AFFINICON APS, priority 2009, dated 2017).
# Numbering of substitutions follows the chain as printed.
# B1: cgamma(6)/K8: chimeric heavy chain cgamma(6) paired with humanized light chain K8 (antibody)
# VH: DVQLQESGPGLVKPSQSLSLTCTVTGYSITSDYAWNWIRQFPGNKLEWMGYITYSGITNYNPSLKSQISITRDTSKNQFFLQLNSVTTEDTATYYCVSGTYYFDYWGQGTTLTVSS
# light: DIVMTQSPSSLSASVGDRVTITCRASQSVSSDVAWFQQKPGKSPKPLIYYASSLQSGVPSRFSGSGSGTDFTLTISSLQAEDFAVYFCGQDYTSPRTFGGGTKLEIKRTVAAPSVFIFPPSDEQLKSGTASVVCLLNNFYPREAKVQWKVDNALQSGNSQESVTEQDSKDSTYSLSSTLTLSKADYEKHKVYACEVTHQGLSSPVTKSFNRGEC
# B2: scFv: scFv (VH-15 residue linker-VL), SEQ ID NO: 77, expressed in E. coli and refolded (protein)
# scFv: MDQVQLQESGPGLVKPSETLSLTCTVSGYSITSDYAWNWIRQFPGNKLEWMGYITYSGSTYYNPSLKSRVTISVDTSKNQFSLKLSSVTAADTATYYCVSGTYYFDYWGQGTTLTVSSGGGGSGGGGSGGGGSDIVMTQSPSSLSASVGDRVTITCRASQSVSSDVAWFQQKPGKSPKPLIYYASNRYSGVPSRFSGSGSGTDFTLTISSLQAEDFAVYFCGQDYTSPRTFGGGTKLEIKREQKLISEEDL
# modifications: scFv sequence
# B3: Fab fragment: Fab of KN2/NRY: heavy chain KN2 with P220 mutated to stop, SEQ ID NO: 82, with light chain NRY (antibody)
# heavy: QVQLQESGPGLVKPSETLSLTCTVSGYSITSDYAWNWIRQFPGNKLEWMGYITYSGSTYYNPSLKSRVTISVDTSKNQFSLKLSSVTAADTATYYCVSGTYYFDYWGQGTTLTVSSASTKGPSVFPLAPCSRSTSESTAALGCLVKDYFPEPVTVSWNSGALTSGVHTFPAVLQSSGLYSLSSVVTVPSSSLGTKTYTCNVDHKPSNTKVDKRVESKYG
# light: B1 light with S53N, L54R, Q55Y
# Columns and labels:
# [1] = system: collagen-induced arthritis
# Procedure: The effect of dexamethasone on arthritis development in the rat CIA model was tested at three dosages (0.01, 0.1 and 1 mg/kg). Dexamethasone was administered intravenously on day 10 (day of disease onset), 13, 16 and 19. Dexamethasone conjugate produced as described in Example 5 was tested at 0.01 mg/kg using the same treatment regimen as for dexamethasone. Treatment with vehicle (PBS/2.5% EtOH) served as negative control. Rats were sacrificed 21 days after immunization.
# Collagen arthritis was induced in 9 weeks old female Lewis rats using a two-step immunization protocol. […]
# Rats were evaluated 6 times per week (once during weekends) for arthritis severity using a macroscopic scoring system of 0-4 for each paw as detailed below: • 0=no signs of arthritis • 0.5=unloading of the paw and/or light redness of ankle joint • 1=redness and mild swelling of the ankle joint • 2=redness and swelling of paw • 3=severe redness and swelling of entire paw including digits • 4=maximally swollen paw, often involvement of multiple joints and extending towards knee joint.
# The total clinical score of an individual rat is defined as the sum of the clinical scores of all four paws for each day. At the end of the study, the cumulative arthritis score was calculated for each rat. […]
# The swelling of the hind paws was measured during weekdays with a laser scan micrometer (Mitutoyo, LSM-503S/6200). […]
# [2] = system: LPS mediated TNFα stimulation; test: Rat in vivo LPS model; set-up: species or system Lewis rats; settings: i.v., challenged with LPS; 2 hours post LPS
# CD163 [3] = molecular target: T1, CD163 (Homo sapiens, UniProt Q86VB7); test: ELISA antibody reactivity comparison; type: binding
# Procedure: A nunc maxisorp plate was coated with the following (50 μl/well) over night at 4° C.: 4 μg/ml goat anti-human kappa chain antibody (AbD Serotec, Oxford, UK) and ˜4 μg/ml human CD163 (purified as described in 8). Buffer was carbonate buffer, pH 9.0. Each measurement was made in duplicate.
# 4) After blocking, the primary antibody was added (100 μl per well).
# For CD163 ELISA • 100 μl/well of goat anti human IgG (H&L) HRP 1:6000 in PBS containing 1% BSA. • For Mac2-158 goat anti-mouse HRP 1:2000 in PBS containing 1% BSA is added to the wells 7) Step 1 was repeated 8) The ELISA was developed by adding 75 μl of TMB substrate to each well. Incubation was performed for 3 min. 9) The reaction was stopped by adding 30 μl 2 NH2SO4 to the wells. 10) The plate was read in an ELISA reader at 450 nm.
# Background was measured on wells with no coating and wells with no primary antibody.
# CD163 [4] = molecular target: T1, CD163; test: scFv ELISA; type: binding; settings: two-fold dilution series
# Procedure: A nunc Maxisorp ELISA plate (NUNC, Roskilde, Denmark) was coated with 50 μl/well of 2 μg/ml of CD163 (purified as described in (2)) over night at 4° C. The coated plate was washed 3 times in PBS and blocked for 1 hour with 3% BSA in PBS. Fractions from scFv purification were tested by adding 100 μl/well of a 1:10 dilution of each sample in 1% BSA, PBS. The refolded protein sample was added directly to the wells (100 μl/well) and two-fold dilution series was made with dilution in 1% BSA in PBS. After 1 hour incubation at 4° C. the plate was washed 3 times in PBS again. Secondary detection was made with a 1 hour incubation of a HRP conjugated anti-His antibody (Sigma-Aldrich, Brøondby, Denmark) (1:4000 diluted in 1% BSA, PBS). After washing 3 times in PBS the ELISA was developed with […] TMB substrate (Invitrogen, Taastrup, Denmark). The reaction was stopped with 40 μl/well of 1 M H2SO4 and the plate was read in an ELISA reader at 450 nm.
# CD163 [5] = molecular target: T1, CD163; test: Fab fragment activity measured by ELISA; type: binding
# Procedure: A nunc maxisorp plate was coated with ˜1 μg/ml human CD163 (purified as described by Kristiansen, M. et al. ((2001). Identification of the haemoglobin scavenger receptor. Nature 11:409(6817): 198-201)) was added at 50 μl/well and incubated over night at 4° C. Buffer for coating was carbonate, pH 9.0. Each measurement was made in duplicates.
# The primary antibody samples used in ELISA was undiluted supernatant or 30 times concentrated supernatant from transfected cells or antibody standard 100 ng/ml KN2/NRY antibody diluted in PBS containing 1% BSA. The supernatant was concentrated on VIVAspin centrifugal concentrator (10.000 MWCO) (Sigma-Aldrich, Brøondby, Denmark).
# The ELISA steps were as follows: ELISA plates were washed 3 times in PBS and blocked with PBS containing 3% BSA for 1 h. After blocking the primary antibody samples were added to the wells (100 μl/well). 2 fold dilution series were made on all samples and standards (dilutions in PBS containing 1% BSA). The samples were incubated on the plates for 1 h. Subsequently, the plates were washed 3 times in PBS and secondary antibody goat anti human kappa chain HRP (AbD Serotec, Oxford, UK) 1:4000 in PBS containing 1% BSA (100 μl/well) was added to the wells. […] The plates were read in an ELISA reader at 450 nm.
# Background was measured on both wells with no coating and wells with no primary antibody.
# T1 sequence (Q86VB7 42-1156): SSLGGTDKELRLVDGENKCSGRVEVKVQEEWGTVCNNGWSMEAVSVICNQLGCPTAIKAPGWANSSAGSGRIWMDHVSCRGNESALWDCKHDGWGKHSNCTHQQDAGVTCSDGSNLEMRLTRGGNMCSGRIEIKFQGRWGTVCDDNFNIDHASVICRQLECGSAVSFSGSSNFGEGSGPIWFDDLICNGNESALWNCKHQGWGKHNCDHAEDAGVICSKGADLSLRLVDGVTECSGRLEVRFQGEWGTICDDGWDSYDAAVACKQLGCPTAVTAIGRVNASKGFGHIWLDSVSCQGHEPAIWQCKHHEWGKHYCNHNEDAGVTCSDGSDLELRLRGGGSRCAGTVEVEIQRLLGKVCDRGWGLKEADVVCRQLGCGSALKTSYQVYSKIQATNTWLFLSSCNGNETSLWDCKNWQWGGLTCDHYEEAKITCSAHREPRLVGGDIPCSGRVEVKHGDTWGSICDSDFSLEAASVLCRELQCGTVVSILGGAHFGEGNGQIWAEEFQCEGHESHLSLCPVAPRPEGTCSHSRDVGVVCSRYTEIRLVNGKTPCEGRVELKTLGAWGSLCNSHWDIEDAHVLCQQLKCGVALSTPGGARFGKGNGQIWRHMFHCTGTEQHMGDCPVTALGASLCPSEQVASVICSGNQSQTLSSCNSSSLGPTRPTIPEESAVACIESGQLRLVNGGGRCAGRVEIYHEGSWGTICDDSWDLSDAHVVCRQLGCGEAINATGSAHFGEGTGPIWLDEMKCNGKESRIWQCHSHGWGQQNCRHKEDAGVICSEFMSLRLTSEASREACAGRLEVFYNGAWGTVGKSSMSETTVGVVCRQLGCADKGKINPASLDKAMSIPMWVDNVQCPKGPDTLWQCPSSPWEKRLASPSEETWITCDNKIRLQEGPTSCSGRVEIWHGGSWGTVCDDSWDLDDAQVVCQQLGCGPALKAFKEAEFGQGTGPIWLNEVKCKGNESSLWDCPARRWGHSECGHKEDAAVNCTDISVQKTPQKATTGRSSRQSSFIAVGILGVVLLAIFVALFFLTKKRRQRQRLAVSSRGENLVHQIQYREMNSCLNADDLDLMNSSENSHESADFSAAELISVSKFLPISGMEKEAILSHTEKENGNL
molecule,measurement,setting,value
C[C@@H]1C[C@H]2[C@@H]3CCC4=CC(=O)C=C[C@]4(C)[C@@]3(F)[C@@H](O)C[C@]2(C)[C@@]1(O)C(=O)CO [dexamethasone],spleen and liver weights compared to the vehicle group,"[1]; 0.01, 0.1 and 1 mg/kg groups",No significant differences
same,thymus weight compared to the vehicle group,"[1]; 0.1 and 1 mg/kg groups, at sacrifice day 21",significantly decreased
"CC1(C)O[C@@H]2C[C@H]3[C@@H]4C[C@H](F)C5=CC(=O)C=C[C@]5(C)[C@@]4(F)[C@@H](O)C[C@]3(C)[C@]2(C(=O)CO)O1 [fluocinolone, Fluocinolone acetonide]","TNFα level, lower compared to vehicle",[2],5 times
B1,amount of antibody in sample to obtain the same reactivity as cgamma(6)/NRY,CD163 [3],approximately twice as much antibody
same,reactivity towards CD163 in ELISA,CD163 [3]; supernatant from transiently transfected CHO-S cells,almost identical
B2,dilution down to which signals were detected,CD163 [4],128 fold
B3,ELISA signal and dilution series,"CD163 [5]; 30× concentrated supernatant, standard 100 ng/ml KN2/NRY",comparable to the standard dilution series
same,ELISA signal,"CD163 [5]; undiluted, non-concentrated supernatant",very small signal
